Legend:
[1] = target: cytoskeleton; test: cell-based or functional assay
[2] = target: cytoskeleton; test: immunoblot densitometry of the detergent insoluble pellet, resting cells
[3] = target: cytoskeleton; test: immunoblot densitometry of the detergent insoluble pellet, TCR ligated against non-ligated
[4] = target: cytoskeleton; test: immunoblot densitometry of the pellet after anti-αβTCR plus GAM ligation, thymocytes
[5] = target: cytoskeleton; test: immunoblot densitometry of the pellet after anti-αβTCR plus GAM ligation, lymph node T cells

Sequence of TCR-ζ (P24161 22-164 limits assumed): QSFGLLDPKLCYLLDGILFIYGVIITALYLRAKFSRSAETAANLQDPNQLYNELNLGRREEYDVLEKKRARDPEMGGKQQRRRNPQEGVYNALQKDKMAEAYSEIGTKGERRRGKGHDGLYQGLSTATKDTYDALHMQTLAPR

| IL-2 production (fold less IL-2 than wild-type CD8/ζ) [1] | percent of TCR-ζ in the detergent insoluble pellet (resting thymocytes and lymph node T cells) [2] [%] | fold increase in the pellet against non-ligated samples (lymph node T cells) [3] [fold] | fold increase in the pellet against non-ligated samples (thymocytes) [3] [fold] | percent of TCR-ζ in the detergent insoluble pellet (activated thymocytes) [4] [%] | percent of TCR-ζ in the detergent insoluble pellet (activated lymph node T cells) [5] [%] | Substance |
| --- | --- | --- | --- | --- | --- | --- |
| 40 |  |  |  |  |  | CD8/ζD67-126 (from UniProt P01731 28-217; P24161 52-164) (receptor) |
| 100 |  |  |  |  |  | CD8/ζY153E (from UniProt P01731 28-217; P24161 52-164) (receptor) |
|  | 7 | 6 | 2 | 16 | 43 | TCR-ζ (from UniProt P24161 22-164) (receptor) |

Reference: patent US20030143644A1
